This is an account of results in paper PMC4872093, “Structural insights into DNA sequence recognition by Type ISP restriction-modification enzymes”.

For data set [1], the target named is LlaGI full-length (crystal) (UniProt Q93R01 1-1570, D78A). As to the kind of experiment: X-ray crystallography, 7.4 A; EMSA: 50 mM Tris-HCl pH 7.4, 100 mM NaCl, 10 mM MgCl2, 0.01 mg/ml BSA, 1 mM DTT, 10% glycerol, 4 C. Crystals at 291 K: LlaGIΔN 100 mM Tris-HCl pH 7.4, 20% PEG 20000, 4% PEG 550 MME, 150-250 mM Na acetate; LlaGI 100 mM MES pH 5.6, 300 mM KCl, 6.5% PEG 20000. The conditions noted are these: protein: recombinant; blunt. A general note: A gel shift assay detects complexes by their altered migration in electrophoresis.

The target in data set [2] is T1, LlaGIΔN (UniProt Q93R01 1-1+166-1570, internal_change).
T1 sequence: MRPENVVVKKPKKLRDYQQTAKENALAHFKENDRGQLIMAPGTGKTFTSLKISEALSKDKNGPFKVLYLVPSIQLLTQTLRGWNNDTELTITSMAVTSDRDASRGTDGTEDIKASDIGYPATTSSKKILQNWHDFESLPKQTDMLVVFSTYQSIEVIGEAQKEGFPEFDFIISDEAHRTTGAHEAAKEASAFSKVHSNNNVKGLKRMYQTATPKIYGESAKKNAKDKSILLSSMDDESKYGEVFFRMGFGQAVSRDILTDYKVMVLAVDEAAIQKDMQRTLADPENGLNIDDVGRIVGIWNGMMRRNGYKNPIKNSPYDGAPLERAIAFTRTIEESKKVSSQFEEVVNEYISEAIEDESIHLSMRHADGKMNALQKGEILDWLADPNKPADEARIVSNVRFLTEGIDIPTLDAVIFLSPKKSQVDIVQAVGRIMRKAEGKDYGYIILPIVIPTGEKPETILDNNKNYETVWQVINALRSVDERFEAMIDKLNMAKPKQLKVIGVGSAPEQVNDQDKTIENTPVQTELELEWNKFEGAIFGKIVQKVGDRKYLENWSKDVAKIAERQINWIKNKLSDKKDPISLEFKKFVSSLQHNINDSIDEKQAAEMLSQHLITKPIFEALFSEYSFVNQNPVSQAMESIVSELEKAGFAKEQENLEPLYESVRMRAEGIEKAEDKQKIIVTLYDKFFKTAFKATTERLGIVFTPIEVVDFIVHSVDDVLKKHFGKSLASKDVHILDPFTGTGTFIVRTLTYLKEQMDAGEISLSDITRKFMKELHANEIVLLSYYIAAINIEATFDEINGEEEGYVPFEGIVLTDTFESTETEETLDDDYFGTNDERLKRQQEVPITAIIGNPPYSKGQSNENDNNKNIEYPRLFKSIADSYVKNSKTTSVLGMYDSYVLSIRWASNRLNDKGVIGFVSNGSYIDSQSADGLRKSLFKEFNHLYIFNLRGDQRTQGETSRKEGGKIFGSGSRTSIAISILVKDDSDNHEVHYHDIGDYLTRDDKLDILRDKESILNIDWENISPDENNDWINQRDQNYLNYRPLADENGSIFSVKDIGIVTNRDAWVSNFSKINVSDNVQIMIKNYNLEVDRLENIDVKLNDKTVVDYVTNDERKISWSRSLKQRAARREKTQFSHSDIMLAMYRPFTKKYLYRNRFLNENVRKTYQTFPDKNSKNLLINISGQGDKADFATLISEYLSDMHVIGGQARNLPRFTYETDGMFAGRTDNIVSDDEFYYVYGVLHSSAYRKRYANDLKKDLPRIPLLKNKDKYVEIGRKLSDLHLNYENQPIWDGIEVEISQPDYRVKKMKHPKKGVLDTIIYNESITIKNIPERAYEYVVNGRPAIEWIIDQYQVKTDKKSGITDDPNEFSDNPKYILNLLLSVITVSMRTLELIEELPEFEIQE
In words: X-ray crystallography, 2.84 A; no AdoMet; target adenine flipped; EMSA: 50 mM Tris-HCl pH 7.4, 100 mM NaCl, 10 mM MgCl2, 0.01 mg/ml BSA, 1 mM DTT, 10% glycerol, 4 C. Crystals at 291 K: LlaGIΔN 100 mM Tris-HCl pH 7.4, 20% PEG 20000, 4% PEG 550 MME, 150-250 mM Na acetate; LlaGI 100 mM MES pH 5.6, 300 mM KCl, 6.5% PEG 20000. The conditions noted are these: protein: recombinant; 5' overhang 1 nt (T) on both strands, 22 bp paired.

B1: LlaGI co-crystal duplex (28 bp) (dsDNA)
DNA 1: GCTCTAGCTAATAGACTGGATGGAGGTG
DNA 2: CACCTCCATCCAGTCTATTAGCTAGAGC
As for B1, the binding result in data set [1] was “binds”.

B2: LlaGIΔN co-crystal duplex (22 bp) (dsDNA)
DNA 1: TTAGCTAATAGACTGGATGGAGG
DNA 2: TCCTCCATCCAGTCTATTAGCTA
As for B2, the binding result in data set [2] is on record as “binds”.
